For the experiment, the target named is full-length, extra-membrane clientized (Thr1273Glu) S tail, biotinylated (BLI) (SARS-CoV-2). As to the kind of experiment: BLI.

B1: S. pombe αWD40 domain (N-terminal WD40 domain of α-COPI), wild type (domain or fragment)
chain: MEMLTKFESRSSRAKGVAFHPTQPWILTSLHNGRIQLWDYRMGTLLDRFDGHDGPVRGIAFHPTQPLFVSGGDDYKVNVWNYKSRKLLFSLCGHMDYVRVCTFHHEYPWILSCSDDQTIRIWNWQSRNCIAILTGHSHYVMCAAFHPSEDLIVSASLDQTVRVWDISGLRMKNAAPVSMSLEDQLAQAHNSISNDLFGSTDAIVKFVLEGHDRGVNWCAFHPTLPLILSAGDDRLVKLWRMTASKAWEVDTCRGHFNNVSCCLFHPHQELILSASEDKTIRVWDLNRRTAVQTFRRDNDRFWFITVHPKLNLFAAAHDSGVMVFKLE
On to B1, for which the fold slower binding rate than the wild-type S tail was found to be 2.4 fold and the fold tighter binding than the wild-type S tail was 11 fold.
